Assay results: US20250282887A1 (Amgen, published 2025)

T1: Human MAGEB2 (Melanoma-associated antigen B2) (human, UniProt O15479 1-319)
T1 construct: Intracellular antigen detected by IHC in FFPE material: CHO cells transfected with human MAGEB2 (mCherry vector with Myc/DDK tags, or ORF without tags)
T1 sequence: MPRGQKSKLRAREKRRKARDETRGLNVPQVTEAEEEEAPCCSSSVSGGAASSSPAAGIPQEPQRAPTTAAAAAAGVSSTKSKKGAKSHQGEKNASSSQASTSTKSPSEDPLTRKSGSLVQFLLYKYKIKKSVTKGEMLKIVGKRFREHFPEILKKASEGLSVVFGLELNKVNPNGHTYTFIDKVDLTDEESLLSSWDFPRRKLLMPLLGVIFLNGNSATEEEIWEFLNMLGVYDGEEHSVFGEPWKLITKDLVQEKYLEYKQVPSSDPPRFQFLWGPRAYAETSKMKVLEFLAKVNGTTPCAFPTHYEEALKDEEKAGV


Legend:
[1] = biological target: T1, Human MAGEB2 (Melanoma-associated …); assay: IHC on FFPE U266B1 cells (endogenous MAGEB2)
Procedure: (§1) FFPE samples were sectioned at 4 μm and mounted on positive charged glass slides. After mounting, paraffin sections were air-dried at room temperature. FFPE TMA samples were received as freshly sectioned and mounted on glass slides. The fully automated IHC assay was performed on a Discovery Ultra Stainer (Ventana Medical Systems, Tucson, AZ) using Ventana Anti-Rabbit HQ (cat #760-4815), Ventana Anti-HQ HRP (cat #760-4820), and Ventana Antibody Diluent with Casein (cat #760-219) (Ventana Medical Systems, Tucson, AZ). The slides were baked on the Discovery Ultra Stainer at 60° C. for 8 minutes, de-paraffinized with Ventana Discovery wash (cat #950-510) for 3 cycles (8 minutes each) at 69° C., and underwent cell conditioning (target retrieval) at 95° C. for 16 minutes (for cell arrays) or 32 minutes (tissues or TMAs) in CC1 buffer (cat #950-500). Following this, slides were incubated with Background Sniper (cat #BS966M, Biocare Medical, Pacheco, CA) in a Ventana Option Prep kit (cat #771-751) for 28 minutes, incubated with CM inhibitor (a part of the Ventana DAB kit cat #760-159) for 12 minutes, and incubated for 1 h at RT with MAGE-B2 antibody diluted with Ventana diluent with Casein in a Ventana Prep kit (cat #770-001) (working concentration at 0.1 μg/ml for cell pellet, or 1-5 ug/ml for tissues) or with a matched concentration of isotype control Rabbit IgG1 antibody. Following this, slides were incubated with the Ventana Anti-Rabbit HQ (cat #760-4815) for 28 minutes at RT, Ventana Anti-HQ HRP (cat #760-4820) for 28 minutes at RT, and signals detected with Ventana DAB chromogen kit (cat #760-159) for 5 minutes at RT. Slides were counterstained with Ventana Hematoxylin II (cat #5266726001) for 8 minutes and Ventana Bluing reagent (cat #526676900) for 4 minutes. Slides were coverslipped and digitized using an Aperio AT2 scanner (Leica Biosystems Inc, Buffalo Grove, IL).

[2] = biological target: T2, human MAGEA12 (human, UniProt P43365 1-314); assay: IHC, FFPE CHO cells transfected with human MAGEA12
T2 construct: whole, on cells; FFPE cell pellets
T2 sequence (P43365 whole entry): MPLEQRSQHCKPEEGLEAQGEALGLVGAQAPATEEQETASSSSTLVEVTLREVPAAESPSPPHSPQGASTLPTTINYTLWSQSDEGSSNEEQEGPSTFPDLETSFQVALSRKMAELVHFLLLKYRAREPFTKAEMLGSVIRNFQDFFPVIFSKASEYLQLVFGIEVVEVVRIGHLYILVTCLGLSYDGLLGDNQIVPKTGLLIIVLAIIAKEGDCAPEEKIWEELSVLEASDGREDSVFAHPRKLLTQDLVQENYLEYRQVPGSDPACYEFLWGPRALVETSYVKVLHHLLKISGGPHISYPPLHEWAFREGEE
Source text: Negative control cells included parental Chinese hamster ovary (CHO) cells, CHO cells stably transfected with mCherry Vector Control (minus Myc/DDK tags), CHO cells stably transfected with mCherry-human DCAF4L2 (plus Myc/DDK tags). The cross-reactivity control cells included CHO cells transfected with mCherry Vector Control (plus Myc/DDK tags) with one of the human MAGE-B or MAGE-A family members (MAGEA1, MAGEA2, MAGEA3, MAGEA4, MAGEA5, MAGEA6, MAGEA8, MAGEA9, MAGEA11, MAGEA12, MAGEB1, MAGEB3, MAGEB4, MAGEB5, MAGEB6, MAGEB10, MAGEB16, MAGEB17, MAGEB18). Positive control cell lines included CHO cells transfected with mCherry Vector (plus Myc/DDK tags) with human MAGE-B2 or CHO cells transfected with mCherry Vector (open reading frame (ORF); minus Myc/DDK tags) with human MAGEB2, and thirteen human cancer cell lines with known endogenous RNA expression level of MAGEB2 (U266B1, T98G, KMM-1, U20S, CFPAC-1, SCaBER, UACC-257, CFPAC-1, VMRC-LCD, NCI-H1703, UM-UC-3, NCI-H1395, NCIH82).
as §1, with “antibody.” for “antibody. Following this, slides were incubated with the Ventana Anti-Rabbit HQ (cat #760-4815) for 28 minutes at RT, Ventana Anti-HQ HRP (cat #760-4820) for 28 minutes at RT, and signals detected with Ventana DAB chromogen kit (cat #760-159) for 5 minutes at RT. Slides were counterstained with Ventana Hematoxylin II (cat #5266726001) for 8 minutes and Ventana Bluing reagent (cat #526676900) for 4 minutes. Slides were coverslipped and digitized using an Aperio AT2 scanner (Leica Biosystems Inc, Buffalo Grove, IL).”

[3] = biological target: T3, human MAGEA3 (human, UniProt P43357 1-314); assay: IHC, FFPE CHO cells transfected with human MAGEA3
T3 construct: whole, on cells; FFPE cell pellets
T3 sequence (P43357 whole entry): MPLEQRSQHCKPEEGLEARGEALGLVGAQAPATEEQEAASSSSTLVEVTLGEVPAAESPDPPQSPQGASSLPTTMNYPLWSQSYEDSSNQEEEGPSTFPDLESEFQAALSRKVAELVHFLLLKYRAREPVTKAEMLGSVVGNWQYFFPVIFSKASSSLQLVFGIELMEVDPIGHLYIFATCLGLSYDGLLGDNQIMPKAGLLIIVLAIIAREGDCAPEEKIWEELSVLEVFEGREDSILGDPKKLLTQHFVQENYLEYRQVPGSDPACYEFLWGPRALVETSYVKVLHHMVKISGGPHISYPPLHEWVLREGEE
Procedure: as §1

[4] = biological target: T1, Human MAGEB2 (Melanoma-associated …); assay: IHC on FFPE NCI-H1703 cells (endogenous MAGEB2)
Procedure: as §1

Row | IHC % Frequency [1] [%] | IHC Intensity [1] | binding result [2] | binding result [3] | IHC % Frequency [4] [%] | IHC Intensity [4] | Binder
1 | 90 | 2 | no binding (tested: 0.1 µg/ml) | no binding (tested: 0.1 µg/ml) | 0 |  | 1C3 (antibody, V domains shown, also called MAGE-B2 (IC3); anti-MAGEB2 antibody 1C3) VH: QSLEESGGGLVQPEGSLTLTCTAFGVTLTNYYICWVRQAPGKGLEWVGCIDNANGRTYYASWAKGRFTISKTSSTTGTLQMTSLTAADTATYFCARSLATPLWGPGTLVTVSS VL: DIVMTQTPSSVEAAVGGTVTIKCQASQNISSYLAWYQQKPGQPPKLLIYRASTLASGVPSRFKGSGSGTQFTLTISDLECADAATYYCQSYDDSRSSNFFYAFGGGTEVVVKG
2 | 80 | 2 | no binding (tested: 0.1 µg/ml) | no binding (tested: 0.1 µg/ml) | 0 | 0 | 4G17 (antibody, IgG1, V domains shown, Rabbit monoclonal IgG1; Tested as supernatant and as small batch purified antibody; also called MAGE-B2 (4G17); anti-MAGEB2 antibody 4G17) VH: QSLEESGGGLVQPEGSLTLTCTASGVTLSNYYICWVRQAPGKGLEWIGCIDNVNGRTYYASWAKGRFTISKTSSTTGTLQMTSLTAADTATYFCARSLATPLWGPGTLVTVSS VL: DIVMTQTPASVEAAVGGTVTIKCQASQNIDSYLAWYQQKPGQPPKLLIYRASTLASGVPSRFKGSGSGTEFTLTISDLECADAATYYCQSYDDSRSSSFFYGFGGGTEVVVK
3 | 90 | 1 | no binding (tested: 0.1 µg/ml) | no binding (tested: 0.1 µg/ml) | 0 |  | 1J15 (antibody, IgG1, V domains shown, Rabbit monoclonal IgG1; Tested as supernatant and as small batch purified antibody; also called MAGE-B2 (IJ15); anti-MAGEB2 antibody 1J15) VH: QSLEESGGGLVQPEGSLTLTCTAFGFTLNNYYICWVRQAPGKGLEWIACIDNANGRTYYASWAKGRFTISKTSSTTVTLQMTSLTAADTATYFCARSLSTPLWGPGTLVTVSS VL: DIVMTQTPASVEAAVGGTVTIKCQASQSISSYLSWYQQKPGQPPKLLIYRASTLASGVPSRFRGSGSGTQFTLTISDLECADAATYYCQSYDDSSDNNFFYGFGGGTEVVVR
4 | 90 | 3 | no binding (tested: 0.1 µg/ml) | no binding (tested: 0.1 µg/ml) | 0 |  | 1I14 (antibody, V domains shown, also called MAGE-B2 (1i14)) VH: QSVEESGGRLVTPGTPLTLTCTISGFSLSSYAMSWVRQAPGKGLEWIGSIGGGGSAVYASWAKGRFTISKTSTTVDLRITSPTTEDTAMYFCGRGFYSIDLWGPGTLVTVSS VL: DVVMTQTPASVEATVGGTVTIKCQSSQSVYDNNALAWYQQNAGQRPRLLIYGASTLASGVPSRFSASGSGTEFTLTISDLECADAATYYCQCTYYVSSYQNDFGGGTEVVVKG
